Measured values reported in PMC3515540, “Identification of Regions Involved in Substrate Binding and Dimer Stabilization within the Central Domains of Yeast Hsp40 Sis1” (PLoS ONE, 2012).

T1: full-length Ydj1 (yeast, UniProt P25491 1-409)
T1 construct: Ydj1, yeast cytosolic Type I DnaJ/Hsp40, full length; also called wild-type Ydj1; source: E. coli BL21(DE3), purified by two chromatography steps
T1 sequence (looked up): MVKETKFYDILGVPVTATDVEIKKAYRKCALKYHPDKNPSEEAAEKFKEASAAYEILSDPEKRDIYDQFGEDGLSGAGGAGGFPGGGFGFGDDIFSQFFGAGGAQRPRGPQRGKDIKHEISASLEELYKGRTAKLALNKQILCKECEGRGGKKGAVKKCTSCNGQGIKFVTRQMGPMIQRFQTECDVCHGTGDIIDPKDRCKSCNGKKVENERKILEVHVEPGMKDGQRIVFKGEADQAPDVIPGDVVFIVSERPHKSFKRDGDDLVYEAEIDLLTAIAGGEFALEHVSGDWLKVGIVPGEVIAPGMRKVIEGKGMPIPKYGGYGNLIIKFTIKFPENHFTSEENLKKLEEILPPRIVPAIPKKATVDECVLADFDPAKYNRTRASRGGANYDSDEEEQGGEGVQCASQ

B1: wild-type Sis1 (natural protein, yeast, UniProt P25294 1-352, looked up)
chain: MVKETKLYDLLGVSPSANEQELKKGYRKAALKYHPDKPTGDTEKFKEISEAFEILNDPQKREIYDQYGLEAARSGGPSFGPGGPGGAGGAGGFPGGAGGFSGGHAFSNEDAFNIFSQFFGGSSPFGGADDSGFSFSSYPSGGGAGMGGMPGGMGGMHGGMGGMPGGFRSASSSPTYPEEETVQVNLPVSLEDLFVGKKKSFKIGRKGPHGASEKTQIDIQLKPGWKAGTKITYKNQGDYNPQTGRRKTLQFVIQEKSHPNFKRDGDDLIYTLPLSFKESLLGFSKTIQTIDGRTLPLSRVQPVQPSQTSTYPGQGMPTPKNPSQRGNLIVKYKVDYPISLNDAQKRAIDENF
notes: Sis1, yeast cytosolic Type II DnaJ/Hsp40, full length wild type (residues to 352 by the SYS formula); no tag is stated; also called native Sis1; full length wild-type Sis1; source: E. coli BL21(DE3), purified by two chromatography steps
B2: Hsp70 Ssa1 (natural protein)
chain: not shown
notes: Ssa1, yeast cytosolic Hsp70; also called yeast Hsp70; source: E. coli BL21(DE3), purified by two chromatography steps (said of all recombinant proteins, 'unless otherwise noted')
B3: SYS (Sis1_(1–121)-Ydj1_(101–255)-Sis1_(258–352)) (other, yeast, UniProt P25294 1-121, looked up)
chain: MVKETKLYDLLGVSPSANEQELKKGYRKAALKYHPDKPTGDTEKFKEISEAFEILNDPQKREIYDQYGLEAARSGGPSFGPGGPGGAGGAGGFPGGAGGFSGGHAFSNEDAFNIFSQFFGGAGGAQRPRGPQRGKDIKHEISASLEELYKGRTAKLALNKQILCKECEGRGGKKGAVKKCTSCNGQGIKFVTRQMGPMIQRFQTECDVCHGTGDIIDPKDRCKSCNGKKVENERKILEVHVEPGMKDGQRIVFKGEADQAPDVIPGDVVFIVSERPHPNFKRDGDDLIYTLPLSFKESLLGFSKTIQTIDGRTLPLSRVQPVQPSQTSTYPGQGMPTPKNPSQRGNLIVKYKVDYPISLNDAQKRAIDENF
notes: Ydj1, yeast, residues 101–255 (central region); Sis1, yeast, residues 258–352 (CTDII and dimerization region); also called chimera SYS; SYS chimera; source: E. coli BL21(DE3), purified by two chromatography steps
B4: Sis1_Δ_(121–257) (natural protein, yeast, UniProt P25294 1-352, looked up)
chain: MVKETKLYDLLGVSPSANEQELKKGYRKAALKYHPDKPTGDTEKFKEISEAFEILNDPQKREIYDQYGLEAARSGGPSFGPGGPGGAGGAGGFPGGAGGFSGGHAFSNEDAFNIFSQFFGHPNFKRDGDDLIYTLPLSFKESLLGFSKTIQTIDGRTLPLSRVQPVQPSQTSTYPGQGMPTPKNPSQRGNLIVKYKVDYPISLNDAQKRAIDENF
notes: source: E. coli BL21(DE3), purified by two chromatography steps
B5: Sis1_Δ_(124–174) (natural protein, yeast, UniProt P25294 1-352, looked up)
chain: MVKETKLYDLLGVSPSANEQELKKGYRKAALKYHPDKPTGDTEKFKEISEAFEILNDPQKREIYDQYGLEAARSGGPSFGPGGPGGAGGAGGFPGGAGGFSGGHAFSNEDAFNIFSQFFGGSSTYPEEETVQVNLPVSLEDLFVGKKKSFKIGRKGPHGASEKTQIDIQLKPGWKAGTKITYKNQGDYNPQTGRRKTLQFVIQEKSHPNFKRDGDDLIYTLPLSFKESLLGFSKTIQTIDGRTLPLSRVQPVQPSQTSTYPGQGMPTPKNPSQRGNLIVKYKVDYPISLNDAQKRAIDENF
notes: as for B4

What was measured:
[1] = biological target: B2; experiment: ELISA; Sis1, variants or Ydj1 (100 µL at 200 nM) coated on the microplate; Ssa1 (100 nM) in 50 mM phosphate pH 7.4, 150 mM NaCl, 5 mM Mg-ATP, 1 h, 25°C; bound Ssa1 detected with α-Ssa1; Sis1 set as 100%; settings: both partners purified
[2] = biological target: the molecule itself; experiment: SEC-MALLS; Superdex 200 10/300 GL, buffer A (25 mM Tris-HCl pH 7.5, 500 mM NaCl); 25 µM protein without urea, 50–75 µM with urea up to 1 M
[3] = biological target: B3; experiment: ELISA; Sis1, variants or Ydj1 (100 µL at 200 nM) coated on the microplate; Ssa1 (100 nM) in 50 mM phosphate pH 7.4, 150 mM NaCl, 5 mM Mg-ATP, 1 h, 25°C; bound Ssa1 detected with α-Ssa1; Sis1 set as 100%; settings: both partners purified
[4] = biological target: B4; experiment: as above; settings: both partners purified
[5] = biological target: T1, full-length Ydj1; experiment: as above; settings: both partners purified

binding result [1] | percent of the binding ability of Sis1 [3] [%] | percent of the binding ability of Sis1 [4] [%] | percent of the binding ability of Sis1 [5] [%] | Binder | stoichiometry N [2]
binds |  |  |  | B1 | 2
 | ~50 | ~50 | ~30 | B2 | 
 |  |  |  | B3 | 2
 |  |  |  | B4 | 2
binds |  |  |  | B5 | 2
